In the data set the target is T1, Recombinant human protein C inhibitor (PCI, SERPINA5), P05154.
T1 chain: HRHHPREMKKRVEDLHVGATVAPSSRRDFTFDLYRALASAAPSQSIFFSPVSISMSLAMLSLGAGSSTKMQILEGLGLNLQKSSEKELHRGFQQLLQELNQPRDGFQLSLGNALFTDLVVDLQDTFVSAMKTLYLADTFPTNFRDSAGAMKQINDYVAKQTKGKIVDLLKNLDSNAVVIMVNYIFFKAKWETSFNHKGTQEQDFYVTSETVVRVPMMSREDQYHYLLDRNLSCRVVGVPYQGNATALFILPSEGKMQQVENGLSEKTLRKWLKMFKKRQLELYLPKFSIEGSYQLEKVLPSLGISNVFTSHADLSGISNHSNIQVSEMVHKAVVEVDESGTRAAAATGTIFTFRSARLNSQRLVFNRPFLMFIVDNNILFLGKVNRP

B1: Recombinant human matriptase (protein)
chain: GSDEKDCDCGLRSFTRQARVVGGTDADEGEWPWQVSLHALGQGHICGASLISPNWLVSAAHCYIDDRGFRYSDPTQWTAFLGLHDQSQRSAPGVQERRLKRIISHPFFNDFTFDYDIALLELEKPAEYSSMVRPICLPDASHVFPAGKAIWVTGWGHTQYGGTGALILQKGEIRVINQTTCENLLPQQITPRMMCVGFLSGGVDSCQGDSGGPLSSVEADGRIFQAGVVSWGDGCAQRNKPGVYTRLPLFRDWIKENTGV
As to B1, the “cleavage of PCI (anti-PCI immunoblot)” value is on record as “resulted in the appearance of cleaved forms of PCI”.

(Values after patent US20200155643.)
